Laboratory results published in publication doi:10.1101/758797 (bioRxiv, 2019).

Target: VPS15 (human, UniProt Q99570 1-1358)
Assay: cryo-EM structure

VPS15, sequence (Q99570 whole entry): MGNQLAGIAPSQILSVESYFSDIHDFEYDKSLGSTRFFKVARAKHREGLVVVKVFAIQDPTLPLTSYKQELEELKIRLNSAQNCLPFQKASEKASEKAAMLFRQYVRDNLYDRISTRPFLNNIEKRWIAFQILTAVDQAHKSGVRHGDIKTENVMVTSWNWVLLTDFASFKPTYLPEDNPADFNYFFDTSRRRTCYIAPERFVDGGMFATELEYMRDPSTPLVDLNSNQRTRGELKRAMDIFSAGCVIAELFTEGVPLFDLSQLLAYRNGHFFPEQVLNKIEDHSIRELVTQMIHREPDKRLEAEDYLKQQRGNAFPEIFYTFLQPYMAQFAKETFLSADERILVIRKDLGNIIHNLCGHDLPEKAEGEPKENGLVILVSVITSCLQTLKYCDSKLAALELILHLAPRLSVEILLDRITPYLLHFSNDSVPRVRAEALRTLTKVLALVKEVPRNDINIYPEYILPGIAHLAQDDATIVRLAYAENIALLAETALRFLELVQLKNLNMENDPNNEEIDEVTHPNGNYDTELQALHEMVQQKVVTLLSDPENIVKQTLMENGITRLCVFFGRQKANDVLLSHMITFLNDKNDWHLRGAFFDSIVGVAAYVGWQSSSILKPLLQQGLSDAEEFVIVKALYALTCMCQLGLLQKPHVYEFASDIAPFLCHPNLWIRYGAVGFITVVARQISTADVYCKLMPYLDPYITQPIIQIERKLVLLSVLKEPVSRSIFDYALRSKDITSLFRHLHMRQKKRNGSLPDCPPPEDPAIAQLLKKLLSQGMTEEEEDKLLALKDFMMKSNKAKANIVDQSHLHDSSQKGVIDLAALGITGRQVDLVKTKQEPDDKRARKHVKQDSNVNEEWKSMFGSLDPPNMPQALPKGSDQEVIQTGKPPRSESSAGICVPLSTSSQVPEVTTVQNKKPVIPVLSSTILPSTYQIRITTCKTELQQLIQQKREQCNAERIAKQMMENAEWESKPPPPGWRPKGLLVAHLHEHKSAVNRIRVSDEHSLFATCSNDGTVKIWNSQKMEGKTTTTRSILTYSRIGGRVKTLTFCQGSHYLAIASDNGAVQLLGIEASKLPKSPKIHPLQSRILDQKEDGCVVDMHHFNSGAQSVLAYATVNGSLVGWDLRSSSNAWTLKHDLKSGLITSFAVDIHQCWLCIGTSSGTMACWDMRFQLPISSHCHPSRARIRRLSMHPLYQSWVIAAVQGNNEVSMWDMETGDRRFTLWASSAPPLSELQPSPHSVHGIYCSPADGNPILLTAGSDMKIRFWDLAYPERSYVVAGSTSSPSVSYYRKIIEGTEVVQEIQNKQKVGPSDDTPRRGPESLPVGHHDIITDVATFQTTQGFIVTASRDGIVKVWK

B1: NRBF2^MIT as fused in MIT-Fusion (NRBF2 residues 1-159, S113A, S120A) (domain or fragment)
chain: MEVMEGPLNLAHQQSRRADRLLAAGKYEEAISCHKKAAAYLSEAMKLTQSEQAHLSLELQRDSHMKQLLLIQERWKRAQREERLKAQQNTDKDAAAHLQTSHKPSAEDAEGQAPLSQKYAPSTEKCLPEIQGIFDRDPDTLLYLLQQKSEPAEPCIGSK
binding result: binds
